This data set is described as follows: yeast display, Sf9 membrane polyspecificity reagent, FACS + sequencing; frameworks hold sequencing errors. The method, boiled down:
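A synthetic nanobody library was expressed on Saccharomyces cerevisiae BJ5465 by galactose induction for 36–48 hours. The library was stained for 1 hour at 4 °C with 10% biotinylated, detergent-solubilized Sf9 membrane reagent and enriched with streptavidin microbeads before FACS. Low and high (top ~1%) gates were set on anti-HA fluorescence for expression and streptavidin fluorescence for reagent binding, and each polyreactivity label reflects the gate of origin.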
“QVQLVESGGGLVQAGGSLRLSCAASGFTFDYYAMGWYRQAPGKERELVAAINYSGGSTYYADSVKGRFTISRDNAKNTVYLQMNSLKPEDTAVYYCNAVGYSVFRRYNYWGQGTQVTVSS”: the “polyreactivity (PSR sort gate)” value was “high polyreactivity”. As to “QVQLVESGGGLVQAGGSLRLSCAASGFTFDYYAMGWYRQAPGKERELVAAISSSGGSTYYADSVKGRFTISRDNAKNTVYLQMNSLKPEDTAVYYCATGHSKKYDYWGQGTQVTVSS”, the “polyreactivity (PSR sort gate)” value is on record as “high polyreactivity”.

Consider “QVQLVESGGGLVQAGGSLRLSCAASGFTFDYYAMGWYRQAPGKERELVAAITRSGTRTYYADSVKGRFTISRDNAKNTVYLQMNSLKPEDTAVYYCNVEYPKRANLSDYWGQGTQVTVSS”, for which the “polyreactivity (PSR sort gate)” value is recorded as “high polyreactivity”. As for “QVQLVESGGGLVQAGGSLRLSCAASGFTFDYYTMGWYRQAPGKERELVAAITSSAGSTDYADSVKGRFTISRDYAKNTVYLQMNSLKPEDTAVYYCNADFLYGTYDYWGQGTQVTVSS”, the entry is “low polyreactivity”. For the sequence “QVQLVESGGGLVQAGGSLRLSCAASGFTFEDNTMGWYRQAPGKERELVAAITWGGVSTYYADSVKGRFTISRDNAKNTVYLQMNSLKPEDTAVYYCARDYDVYTVYLMDYWGQGTQVTVSS”, the “polyreactivity (PSR sort gate)” value is listed as “low polyreactivity”.

For the sequence “QVQLVESGGGLVQAGGSLRLSCAASGFTFEENDMGWYRQAPGKETELVAAINWSGGNTYYADSVKGRFTISRDNAKNTVYLQMNSLKPEDTAVYYCAADSPRYYYWVGPYYGYDYWGQGTQVTVSS”, the “polyreactivity (PSR sort gate)” value is “high polyreactivity”. As for “QVQLVESGGGLVQAGGSLRLSCAASGFTFEFNVMGWYRQAPGKERELVASIRWGSTSYADSVKGRFTISRDNAKNTVYLQMNSLKPEDTALYDCAAVTYDYWRQGTQVTVSS”, the entry is “low polyreactivity”; as for “QVQLVESGGGLVQAGGSLRLSCAASGFTFEIYAMGWYRQAPGKEREFVASISWSVGSTYYADSVKGRFTISRDNAKNTVYLQMNSLKPEDTAVYYCNADWRHKYYHSYLYDYWGQGTQVTVSS”, “low polyreactivity”; as for “QVQLVESGGGLVQAGGSLRLSCAASGFTFERNAMGWYRQAPGKERELVATINGSSDSTYYSDSVKGRFTISRDNAKNTVYLQMNSLKPEDTAVYYCNADSITEGNSRYSHFDYWGQGTQVTVSS”, “low polyreactivity”. As for “QVQLVESGGGLVQAGGSLRLSCAASGFTFETYAMGWNRQAPGKERELVASISRSGGRTYYADSVKGRFTISRDNAKNTVYLQMNSLKPDDTAVYYCAAGYYVRYGRRPTGYGGYDYWGQGTQVTVSS”, the entry is “high polyreactivity”; as for “QVQLVESGGGLVQAGGSLRLSCAASGFTFEVNAMGWYRQAPGKERELVAAINRGGSTYYADSVKGRFTISRDNAKNTVYFQMNSLKPEDTAVYYCNRDYEYPTYPHDYWGQGTQVTVSS”, “low polyreactivity”. As for “QVQLVESGGGLVQAGGSLRLSCAASGFTFEWYTMRCYRQAPGKERELVADISGDGSTYYADSVKGRFTISRDNAKNTVYLQMNSLKPEDTAVYYCAARTRRYHRPGLSPGNYWGQGTQVTVSS”, the entry is “high polyreactivity”; as for “QVQLVESGGGLVQAGGSLRLSCAASGFTFEYYAMGWYRHAPGKERELVAAITSGGTTYYADSVKGRFTISRDNAKNTDYLQMNSLKPEDTAVYYCAAANRFGPYGYWGQGTQVTVSS”, “high polyreactivity”. “QVQLVESGGGLVQAGGSLRLSCAASGFTFEYYAMGWYRQAPGKERELVATITSGGSTYYADSVKGRFTISRDNAKNTVYLQMNSLKPDDTAVYYCITSSPWIEDYWGQGTQVTVSS”: the “polyreactivity (PSR sort gate)” value is reported as “low polyreactivity”. Regarding “QVQLVESGGGLVQAGGSLRLSCAASGFTFEYYAMGWYRQARGKERELVASITNSGTRTYYADSVKGRFTISRDNAKNTVYLQMNSLKPEDTAVYYCAATPWNGRYSRFGYWGQGTQVTVSS”, the “polyreactivity (PSR sort gate)” value is listed as “high polyreactivity”. Next, “QVQLVESGGGLVQAGGSLRLSCAASGFTFEYYTMGWYRQAPGTERELVAAITKRGGSTYYADSVKGRFTISRDNAKNTVYLQMNSLKPEDTAVYYCAVRKPYSRYTVNYDSWGQGTQVTVSS”: “high polyreactivity”; “QVQLVESGGGLVQAGGSLRLSCAASGFTFFANAMGWYRQAPGKERELVAAISISDATTYYADSVKGRFTISRDNAKNTVYLQMNSLKPEDTAVYDCAAEPEYIAGPLDYWGQGTQVTVSS”: “high polyreactivity”.

As for “QVQLVESGGGLVQAGGSLRLSCAASGFTFFHNAMGWYRPAPGKERELVAAITSGGNTYYADSVKGRFTISRDNAKNTVYLQMNSLKPEDTAVYYCAASFWSSGQWYDYWGQGTQVTVSS”, the “polyreactivity (PSR sort gate)” value is recorded as “high polyreactivity”. In the case of “QVQLVESGGGLVQAGGSLRLSCAASGFTFFHYAMGWYRQATGKEREFVAAINTRGSRTYYADSVKGRFTISRDNAKNTVYLQMNSLKPEDTAVYYCAADSVQVYAWQYYYWGQGTQVTVSS”, the “polyreactivity (PSR sort gate)” value was “high polyreactivity”. On to “QVQLVESGGGLVQAGGSLRLSCAASGFTFFKYAMGWYRQAPGKERVLVAAITRNGGRTYYADSVKGRFTISRDNAKNTVYLQMNSLKPEDTAVYYCNAASVNGGRDFDYWGQGTQVTVSS”, for which the “polyreactivity (PSR sort gate)” value was “high polyreactivity”. Next, “QVQLVESGGGLVQAGGSLRLSCAASGFTFFPYAMGWYRQAPGKERELVAGITYIGGSTYYADSVKGRFTISRDNAKNTVYLQMNSLKPEDTAVYYCNAGRIGGFDWGQGTQVTVSS”: “low polyreactivity”.

Consider “QVQLVESGGGLVQAGGSLRLSCAASGFTFFPYAMGWYRQAPGTERELVAAITETGGRTYYADSVKGRFTISRDNAKYTVYLQMNSLKPEDTAVYYCAKRGLHGYFVRGERGYWGQGTQVTVSS”, for which the “polyreactivity (PSR sort gate)” value is on record as “low polyreactivity”. “QVQLVESGGGLVQAGGSLRLSCAASGFTFFRNAMGWYRQAPGKERELVAAISGSGGSTYYADSVKGRFTISRDNATNTVYLQMNSLIPVDTAVYYCATYSYPAKVREAYNYWGQGTQVTVSS”: the “polyreactivity (PSR sort gate)” value is given as “low polyreactivity”.

Turning to “QVQLVESGGGLVQAGGSLRLSCAASGFTFFSKAMGWYRQAPGKERELVAAITTNGGSTYYADSVKGRFTISRDNAKNTVYLQMNSLKPEETAVYYCAADYSLPWSWLYEYWGQGTQVTVSS”, the “polyreactivity (PSR sort gate)” value is on record as “low polyreactivity”.

“QVQLVESGGGLVQAGGSLRLSCAASGFTFFSNAMGWNRQAPGKERELVAAIDWSGDNTNYADSVKGRFTISRDNAKNTVYLQLNSLKPEDTAVYYCAAVYSYYRLYAYPAYYYWGQGTQVTVSS”: the “polyreactivity (PSR sort gate)” value is “low polyreactivity”. In the case of “QVQLVESGGGLVQAGGSLRLSCAASGFTFFSYAMGWYRQAPGKERELVAAISWSGGTTYYADSVKGRFTISRDNAKNTDYLQMNSLKPEDTAVYYCAAGPFSYSHYGRKFYYWGQGTQVTVSS”, the “polyreactivity (PSR sort gate)” value is “high polyreactivity”. Turning to “QVQLVESGGGLVQAGGSLRLSCAASGFTFFTYAMGWYRQAPGKERELVAAIRWRGSTTYYADSVKGRFTISRDNAKYTVYLQMNSLKPEDTAVYYCAAELRFRQTGLAYWGDYWGQGTQVTVSS”, the “polyreactivity (PSR sort gate)” value was “high polyreactivity”. “QVQLVESGGGLVQAGGSLRLSCAASGFTFFWYAMGWSRQAPGKERELVAGITYRGGSTYYADSVKGRFTISRDNAKNTVYLQMNSLKPEDTAVYYCNADVVTKHISAWWDRYYRRYYYWGQGTQVTVSS”: the “polyreactivity (PSR sort gate)” value is recorded as “low polyreactivity”. Next, “QVQLVESGGGLVQAGGSLRLSCAASGFTFFYNDMGSYRQAPGKERELVAAINLSGGTTYYADSVKGRFTISRDNAKNTVYLQMNSLIPEDTAVYYCNRASSTPWYRWRYKPFDYWGQGTQVTVSS”: “high polyreactivity”; “QVQLVESGGGLVQAGGSLRLSCAASGFTFFYYVMGWYRQAPGKERDLVAAITRGGSTYYADSVKGRFTISRDNAKNTVDLQMNSLKPEDTAVYYCNKVLRVYLGRFEYYSWGQGTQVTVSS”: “high polyreactivity”; “QVQLVESGGGLVQAGGSLRLSCAASGFTFGAYAMGWYRQAPGTERELVAAISYRGGRTYYADSVKGRFTISRDNAKNTVYLQMNSLKPEDTAVYYGNTVYLVTWRVKGYYWGQGTQVTVSS”: “low polyreactivity”.

With “QVQLVESGGGLVQAGGSLRLSCAASGFTFGGNAMGWYRQAPGKEREFVAAITRSGGSTYYADSVKGRFTISRDNAKNTVYLQMNSLKPEDTAVYYCAARRSYPLGYDYWGQGTQVTVSS”, the “polyreactivity (PSR sort gate)” value is recorded as “high polyreactivity”. Next, “QVQLVESGGGLVQAGGSLRLSCAASGFTFGGNVMGWYRQAPGTERELVAAITYSGGSTYYADSVKGRFTISRDNAKNTVYLQMNSLIPEDTAVYYCNADATDSYPEKDEHDSWGQGTQVNVSS”: “low polyreactivity”; “QVQLVESGGGLVQAGGSLRLSCAASGFTFGGYAMGWYRQAPGKERELVAAISRSGGSTSYADSVKGRFTISRDNAKNTVYLQMNSLKPEDTAVYYCAAKFFRNTYSYGMDYWGLGTQVTVSS”: “high polyreactivity”. In the case of “QVQLVESGGGLVQAGGSLRLSCAASGFTFGGYAMGWYRQAPGKERELVAAISSGGSTYYADSVKGRFTISRDNAKNTVYLQMNSLKPEDTAVYYCATDLRRYSYRGGHYYWGQGTQVTVSS”, the “polyreactivity (PSR sort gate)” value is “high polyreactivity”. For “QVQLVESGGGLVQAGGSLRLSCAASGFTFGGYTMGWYRQAPGKERELVAAISRSGGSTYYADSVKGRFTISRDNAKNTVYLLMNSLKPEDTAVYYCAVTYSVRTYWYDYWGQGTQVTVSS”, the “polyreactivity (PSR sort gate)” value is “high polyreactivity”. As for “QVQLVESGGGLVQAGGSLRLSCAASGFTFGGYVMGWYRQAPGKERELVAAINQTGGSTYYADSVKGRFTISRDNAKNTVYLQMNSLKPEDTAVYYCAALGYHGYRNYDYWGQGTQVTVSS”, the entry is “low polyreactivity”; as for “QVQLVESGGGLVQAGGSLRLSCAASGFTFGINAKGWYRQAPGKERELVAALSWSGGSTYYADSVKGRFTISRDNAKNTVYLQMNSLKPEDTAVYYCAVVWFSLWYKGSTFNRYDYWGQGTQVTVSS”, “low polyreactivity”; as for “QVQLVESGGGLVQAGGSLRLSCAASGFTFGIYAMGRYRQAPGKERELVAAISRSGGSTYYADSVKGRFTISRDNAKNTVYLQMNSLKPEDTAVYYCNTRWGYARGGRYGYWGQGTQVTVSS”, “high polyreactivity”. In the case of “QVQLVESGGGLVQAGGSLRLSCAASGFTFGIYAMGWYRQAPGKERELVAAISRGGGSTYYADSVKGRFTISRDNAKNTVYLQMNSLKPEDTAVYYCAARYQSPYDYWGQGTQVTVSS”, the “polyreactivity (PSR sort gate)” value is on record as “high polyreactivity”.

These data come from the nanobody polyreactivity screen of Harvey et al. (2022).
